Laboratory results as given in patent US20150344570A1 (published 2015).

T1: FcgRIIaR (human, UniProt P12318 34-217)
T1 construct: extracellular domain; also called FcγRIIa R; FcgRIIa type R; not shown: His tag attached to the C terminus
T1 sequence (looked up): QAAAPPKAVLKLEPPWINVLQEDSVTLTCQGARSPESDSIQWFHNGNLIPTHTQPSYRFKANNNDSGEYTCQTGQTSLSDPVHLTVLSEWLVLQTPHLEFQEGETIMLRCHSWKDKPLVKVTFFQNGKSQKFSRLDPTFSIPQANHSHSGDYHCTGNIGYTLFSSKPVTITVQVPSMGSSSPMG

T2: FcgRIIaH (human, UniProt P12318 34-217)
T2 construct: extracellular domain; also called FcγRIIa H; FcgRIIa type H; not shown: His tag attached to the C terminus
T2 sequence (looked up): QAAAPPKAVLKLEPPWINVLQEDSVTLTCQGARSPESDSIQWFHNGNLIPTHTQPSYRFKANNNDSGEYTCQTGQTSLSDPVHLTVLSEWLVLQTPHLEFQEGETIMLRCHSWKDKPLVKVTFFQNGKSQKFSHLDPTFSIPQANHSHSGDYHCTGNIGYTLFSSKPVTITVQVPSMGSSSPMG

T3: FcgRIIb (human, UniProt P31994 43-217)
T3 construct: extracellular domain; also called FcγRIIb; 2b; not shown: His tag attached to the C terminus
T3 sequence (looked up): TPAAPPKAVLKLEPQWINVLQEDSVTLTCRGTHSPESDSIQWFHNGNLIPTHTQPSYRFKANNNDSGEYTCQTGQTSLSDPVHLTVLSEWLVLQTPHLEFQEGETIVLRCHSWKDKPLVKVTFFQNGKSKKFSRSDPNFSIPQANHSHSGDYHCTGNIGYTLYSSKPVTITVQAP


Legend:
Experiment in all cases: SPR (Biacore); KD of H240-Kn033/H240-Hl033/L73-k0 divided by KD of this variant
FcgRIIaR = target: T1, FcgRIIaR
Description: (§1) H240-Kn204/H240-Hl211/L73-k0 and H240-Kn205/H240-Hl212/L73-k0 were prepared according to the method of Reference Example 1, by combining H240-Kn204 as one of the H chains and L73-k0 as the L chains with H240-Hl211 as the other H chain, and by combining H240-Kn205 as one of the H chains and L73-k0 as the L chains with H240-Hl212 as the other H chain, and then expressing them. The binding of the prepared variants to FcgRIa, FcgRIIaR, FcgRIIaH, FcgRIIb, FcgRIIIaF, and FcgRIIIaV was measured according to the method of Reference Example 8.
(§2) “fold 2aR”, “fold 2aH”, “fold 2b”, “fold 3aF”, and “fold 3aV” show the relative binding activity of each variant to FcgRIIaR, FcgRIIaH, FcgRIIb, FcgRIIIaF, and FcgRIIIaV, respectively, when the binding activity of H240-Kn033/H240-Hl033/L73-k0, a variant produced by introducing only alterations that promote formation of a heterodimerized antibody into a native IgG1, is defined as 1. Specifically, they are values obtained by dividing the KD value of H240-Kn033/H240-Hl033/L73-k0 for each FcgR by the KD value of an individual variant for each FcgR.
(§3) Analysis of interaction between objective antibody and the FcγR was carried out using Biacore T100 (GE Healthcare), Biacore T200, Biacore A100, and Biacore 4000. HBS-EP+ (GE Healthcare) was used as the running buffer, and the measurement temperature was set to 25° C. Chips produced by immobilizing the antigen peptide by the amine coupling method to a Series S sensor Chip CM5 (GE Healthcare), chips produced by allowing preliminarily biotinylated antigen peptides to interact with and immobilize onto a Series S Sensor Chip SA (certified) (GE Healthcare), chips produced by immobilizing Protein L (ACTIGEN, BioVision) to Series S Sencor Chip CM5 (GE Healthcare), or chips produced by immobilizing Protein A/G (Thermo Scientific) to Series S Sencor Chip CM5 (GE Healthcare) were used. Antibodies of interest were captured onto these chips, and allowed to interact to each FcγR diluted with running buffer.

FcgRIIaH = target: T2, FcgRIIaH
Description: as §1, §2, §3

FcgRIIb = target: T3, FcgRIIb
Description: as §1, §2, §3

FcgRIIIaF = target: T4, FcgRIIIaF (human, UniProt P08637 17-208)
T4 construct: extracellular domain; also called FcγRIIIa F; 3aF; not shown: His tag attached to the C terminus
Description: as §1, §2, §3

FcgRIIIaV = target: T5, FcgRIIIaV (human, UniProt P08637 17-208)
T5 construct: extracellular domain; also called FcγRIIIa V; 3aV; not shown: His tag attached to the C terminus
Description: as §1, §2, §3

T5 sequence (P08637 17-208 F176V limits assumed): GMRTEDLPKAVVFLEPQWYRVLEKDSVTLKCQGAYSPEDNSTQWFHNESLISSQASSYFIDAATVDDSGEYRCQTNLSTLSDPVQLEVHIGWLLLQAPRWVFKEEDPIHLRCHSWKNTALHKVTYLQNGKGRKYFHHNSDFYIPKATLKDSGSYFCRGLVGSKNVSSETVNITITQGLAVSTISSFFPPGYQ
T4 sequence (P08637 17-208): as the sequence (P08637 17-208 F176V limits assumed) above, with V160F counted along it

fold 2aR (FcgRIIaR) | fold 2aH (FcgRIIaH) | fold 2b (FcgRIIb) | fold 3aF (FcgRIIIaF) | fold 3aV (FcgRIIIaV) | Binder
0.6 fold | 2.1 fold | 0.4 fold | 121 fold | 77.4 fold | H240-Kn209/H240-Hl076/L73-k0 (antibody, human IgG1, kappa, Anti-epiregulin heterodimerized IgG1, knobs-into-holes) heavy 1: QDQLVQSGAEVKKPGASVKVSCKASGFNIKDTYIQWVRQAPGQGLEWMGRIDPLRKQTKYREKFEGRVTITADTSTNTAYMELSSLRSEDTAVYYCVRSGREFDYWGQGTLVTVSSASTKGPSVFPLAPSSKSTSGGTAALGCLVKDYFPEPVTVSWNSGALTSGVHTFPAVLQSSGLYSLSSVVTVPSSSLGTQTYICNVNHKPSNTKVDKKVEPKSCDKTHTCPPCPAPEQQWGPMVFLFPPKPKDTLMISRTPEVTCVVVDVSDEEPEVKFNWYVDGVEVHNAKTKPREEQYNATYRVVSVLTVLHQDWLNGKEYKCKVSNKALPAPIEKTISKAKGQPREPQVCTLPPSRDELTKNQVSLWCLVKGFYPSDIAVEWESNGQPENNYKTTPPVLDSDGSFFLYSKLTVDKSRWQQGNVFSCSVMHEALHNHYTQKSLSLSP heavy 2: QDQLVQSGAEVKKPGASVKVSCKASGFNIKDTYIQWVRQAPGQGLEWMGRIDPLRKQTKYREKFEGRVTITADTSTNTAYMELSSLRSEDTAVYYCVRSGREFDYWGQGTLVTVSSASTKGPSVFPLAPSSKSTSGGTAALGCLVKDYFPEPVTVSWNSGALTSGVHTFPAVLQSSGLYSLSSVVTVPSSSLGTQTYICNVNHKPSNTKVDKKVEPKSCDKTHTCPPCPAPELLGGPSVFLFPPKPKDTLMISRTPEVTCVVVDVSHEEPEVKFNWYVDGVEVHNAKTKPREEQYNSTYRVVSVLTVLHQDWLNGKEYKCKVSNDALPMPIEETISKAKGQPREPQVYTLPPSRCELTKNQVSLSCAVKGFYPSDIAVEWESNGQPENNYKTTPPVLDSDGSFFLVSKLTVDKSRWQQGNVFSCSVMHEALHNHYTQKSLSLSP light: DIQMTQSPSSLSASVGDRVTITCRASQDIHKYIAWYQQKPGQAPRLLIQYTSTLQPGVPSRFSGSGSGTDYTFTISSLQPEDIATYYCLQYEQLRTFGGGTKVEIKRTVAAPSVFIFPPSDEQLKSGTASVVCLLNNFYPREAKVQWKVDNALQSGNSQESVTEQDSKDSTYSLSSTLTLSKADYEKHKVYACEVTHQGLSSPVTKSFNRGEC
1.3 fold | 3.5 fold | 0.8 fold | 161 fold | 98 fold | H240-Kn210/H240-Hl076/L73-k0 (antibody, human IgG1, kappa, Anti-epiregulin heterodimerized IgG1, knobs-into-holes) heavy 1: QDQLVQSGAEVKKPGASVKVSCKASGFNIKDTYIQWVRQAPGQGLEWMGRIDPLRKQTKYREKFEGRVTITADTSTNTAYMELSSLRSEDTAVYYCVRSGREFDYWGQGTLVTVSSASTKGPSVFPLAPSSKSTSGGTAALGCLVKDYFPEPVTVSWNSGALTSGVHTFPAVLQSSGLYSLSSVVTVPSSSLGTQTYICNVNHKPSNTKVDKKVEPKSCDKTHTCPPCPAPEIQWGPMVFLFPPKPKDTLMISRTPEVTCVVVDVSDEEPEVKFNWYVDGVEVHNAKTKPREEQYNATYRVVSVLTVLHQDWLNGKEYKCKVSNKALPAPIEKTISKAKGQPREPQVCTLPPSRDELTKNQVSLWCLVKGFYPSDIAVEWESNGQPENNYKTTPPVLDSDGSFFLYSKLTVDKSRWQQGNVFSCSVMHEALHNHYTQKSLSLSP heavy 2: QDQLVQSGAEVKKPGASVKVSCKASGFNIKDTYIQWVRQAPGQGLEWMGRIDPLRKQTKYREKFEGRVTITADTSTNTAYMELSSLRSEDTAVYYCVRSGREFDYWGQGTLVTVSSASTKGPSVFPLAPSSKSTSGGTAALGCLVKDYFPEPVTVSWNSGALTSGVHTFPAVLQSSGLYSLSSVVTVPSSSLGTQTYICNVNHKPSNTKVDKKVEPKSCDKTHTCPPCPAPELLGGPSVFLFPPKPKDTLMISRTPEVTCVVVDVSHEEPEVKFNWYVDGVEVHNAKTKPREEQYNSTYRVVSVLTVLHQDWLNGKEYKCKVSNDALPMPIEETISKAKGQPREPQVYTLPPSRCELTKNQVSLSCAVKGFYPSDIAVEWESNGQPENNYKTTPPVLDSDGSFFLVSKLTVDKSRWQQGNVFSCSVMHEALHNHYTQKSLSLSP light: DIQMTQSPSSLSASVGDRVTITCRASQDIHKYIAWYQQKPGQAPRLLIQYTSTLQPGVPSRFSGSGSGTDYTFTISSLQPEDIATYYCLQYEQLRTFGGGTKVEIKRTVAAPSVFIFPPSDEQLKSGTASVVCLLNNFYPREAKVQWKVDNALQSGNSQESVTEQDSKDSTYSLSSTLTLSKADYEKHKVYACEVTHQGLSSPVTKSFNRGEC
1.3 fold | 2.6 fold | 0.8 fold | 153 fold | 92.3 fold | H240-Kn211/H240-Hl076/L73-k0 (antibody, human IgG1, kappa, Anti-epiregulin heterodimerized IgG1, knobs-into-holes) heavy 1: QDQLVQSGAEVKKPGASVKVSCKASGFNIKDTYIQWVRQAPGQGLEWMGRIDPLRKQTKYREKFEGRVTITADTSTNTAYMELSSLRSEDTAVYYCVRSGREFDYWGQGTLVTVSSASTKGPSVFPLAPSSKSTSGGTAALGCLVKDYFPEPVTVSWNSGALTSGVHTFPAVLQSSGLYSLSSVVTVPSSSLGTQTYICNVNHKPSNTKVDKKVEPKSCDKTHTCPPCPAPEMQWGPMVFLFPPKPKDTLMISRTPEVTCVVVDVSDEEPEVKFNWYVDGVEVHNAKTKPREEQYNATYRVVSVLTVLHQDWLNGKEYKCKVSNKALPAPIEKTISKAKGQPREPQVCTLPPSRDELTKNQVSLWCLVKGFYPSDIAVEWESNGQPENNYKTTPPVLDSDGSFFLYSKLTVDKSRWQQGNVFSCSVMHEALHNHYTQKSLSLSP heavy 2: QDQLVQSGAEVKKPGASVKVSCKASGFNIKDTYIQWVRQAPGQGLEWMGRIDPLRKQTKYREKFEGRVTITADTSTNTAYMELSSLRSEDTAVYYCVRSGREFDYWGQGTLVTVSSASTKGPSVFPLAPSSKSTSGGTAALGCLVKDYFPEPVTVSWNSGALTSGVHTFPAVLQSSGLYSLSSVVTVPSSSLGTQTYICNVNHKPSNTKVDKKVEPKSCDKTHTCPPCPAPELLGGPSVFLFPPKPKDTLMISRTPEVTCVVVDVSHEEPEVKFNWYVDGVEVHNAKTKPREEQYNSTYRVVSVLTVLHQDWLNGKEYKCKVSNDALPMPIEETISKAKGQPREPQVYTLPPSRCELTKNQVSLSCAVKGFYPSDIAVEWESNGQPENNYKTTPPVLDSDGSFFLVSKLTVDKSRWQQGNVFSCSVMHEALHNHYTQKSLSLSP light: DIQMTQSPSSLSASVGDRVTITCRASQDIHKYIAWYQQKPGQAPRLLIQYTSTLQPGVPSRFSGSGSGTDYTFTISSLQPEDIATYYCLQYEQLRTFGGGTKVEIKRTVAAPSVFIFPPSDEQLKSGTASVVCLLNNFYPREAKVQWKVDNALQSGNSQESVTEQDSKDSTYSLSSTLTLSKADYEKHKVYACEVTHQGLSSPVTKSFNRGEC
